How the values were obtained:
HeLa Kyoto [1] = test: solubility in G1/S (NP-40 vs SDS abundance) (log2 ratio); higher = more soluble; settings: cell cycle stage: G1/S
HeLa Kyoto [2] = test: solubility change mitosis vs G1/S (difference of NP-40 vs SDS log2 ratios) (log2 ratio difference); higher = more soluble in mitosis
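Throughout, for solubility change mitosis vs G1/S (difference of NP-40 vs SDS log2 ratios): synchronized HeLa Kyoto cells (double thymidine block for G1/S, nocodazole release for mitosis), protein amounts in NP-40 versus SDS lysates quantified by mass spectrometry, three biological replicates.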
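Throughout, for solubility in G1/S (NP-40 vs SDS abundance): HeLa Kyoto cells arrested at G1/S by double thymidine block, proteins quantified by TMT10plex mass spectrometry in mild NP-40 versus SDS extracts, three biological replicates.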

Question: “MDKNIGEQLNKAYEAFRQACMDRDSAVKELQQKTENYEQRIREQQEQLSLQQTIIDKLKSQLLLVNSTQDNNYGCVPLLEDSETRKNNLTLDQPQDKVISGIAREKLPKVRRQEVSSPRKETSARSLGSPLLHERGNIEKTFWDLKEEFHKICMLAKAQKDHLSKLNIPDTATETQCSVPIQCTDKTDKQEALFKPQAKDDINRGAPSITSVTPRGLCRDEEDTSFESLSKFNVKFPPMDNDSTFLHSTPERPGILSPATSEAVCQEKFNMEFRDNPGNFVKTEETLFEIQGIDPIASAIQNLKTTDKTKPSNLVNTCIRTTLDRAACLPPGDHNALYVNSFPLLDPSDAPFPSLDSPGKAIRGPQQPIWKPFPNQDSDSVVLSGTDSELHIPRVCEFCQAVFPPSITSRGDFLRHLNSHFNGET [TANK]” was tested. Which “solubility in G1/S (log2)” value (HeLa Kyoto [1]) did it give?
Answer: -0.138

Question: And the “solubility change mitosis (log2)” value (HeLa Kyoto [2])?
Answer: -0.0338

Question: With “MDPPAVVAESVSSLTIADAFIAAGESSAPTPPRPALPRRFICSFPDCSANYSKAWKLDAHLCKHTGERPFVCDYEGCGKAFIRDYHLSRHILTHTGEKPFVCAANGCDQKFNTKSNLKKHFERKHENQQKQYICSFEDCKKTFKKHQQLKIHQCQHTNEPLFKCTQEGCGKHFASPSKLKRHAKAHEGYVCQKGCSFVAKTWTELLKHVRETHKEEILCEVCRKTFKRKDYLKQHMKTHAPERDVCRCPREGCGRTYTTVFNLQSHILSFHEESRPFVCEHAGCGKTFAMKQSLTRHAVVHDPDKKKMKLKVKKSREKRSLASHLSGYIPPKRKQGQGLSLCQNGESPNCVEDKMLSTVAVLTLG [GTF3A]” as the sequence, how does the “solubility in G1/S (log2)” value (HeLa Kyoto [1]) read?
Answer: -0.869

Question: And the “solubility change mitosis (log2)” value (HeLa Kyoto [2])?
Answer: 0.0516

Question: “MDRFLVKGAQGGLLRKQEEQEPTGEEPAVLGGDKESTRKRPRREAPGNGGHSAGPSWRHIRAEGLDCSYTVLFGKAEADEIFQELEKEVEYFTGALARVQVFGKWHSVPRKQATYGDAGLTYTFSGLTLSPKPWIPVLERIRDHVSGVTGQTFNFVLINRYKDGCDHIGEHRDDERELAPGSPIASVSFGACRDFVFRHKDSRGKSPSRRVAVVRLPLAHGSLLMMNHPTNTHWYHSLPVRKKVLAPRVNLTFRKILLTKK [ALKBH2]” was tested. Which “solubility in G1/S (log2)” value (HeLa Kyoto [1]) did it give?
Answer: 0.0785

Question: What about the “solubility change mitosis (log2)” value (HeLa Kyoto [2]) of the same sequence?
Answer: 0.0123

Question: What does the source list for “MDSLDHMLTDPLELGPCGDGHGTRIMEDCLLGGTRVSLPEDLLEDPEIFFDVVSLSTWQEVLSDSQREHLQQFLPQFPEDSAEQQNELILALFSGENFRFGNPLHIAQKLFRDGHFNPEVVKYRQLCFKSQYKRYLNSQQQYFHRLLKQILASRSDLLEMARRSGPALPFRQKRPSPSRTPEEREWRTQQRYLKVLREVKEECGDTALSSDEEDLSSWLPSSPARSPSPAVPLRVVPTLSTTDMKTADKVELGDSDLKIMLKKHHEKRKHQPDHPDLLTGDLTLNDIMTRVNAGRKGSLAALYDLAVLKKKVKEKEEKKKKKIKTIKSEAEDLAEPLSSTEGVAPLSQAPSPLAIPAIKEEPLEDLKPCLGINEISSSFFSLLLEILLLESQASLPMLEERVLDWQSSPASSLNSWFSAAPNWAELVLPALQYLAGESRAVPSSFSPFVEFKEKTQQWKLLGQSQDNEKELAALFQLWLETKDQAFCKQENEDSSDATTPVPRVRTDYVVRPSTGEEKRVFQEQERYRYSQPHKAFTFRMHGFESVVGPVKGVFDKETSLNKAREHSLLRSDRPAYVTILSLVRDAAARLPNGEGTRAEICELLKDSQFLAPDVTSTQVNTVVSGALDRLHYEKDPCVKYDIGRKLWIYLHRDRSEEEFERIHQAQAAAAKARKALQQKPKPPSKVKSSSKESSIKVLSSGPSEQSQMSLSDSSMPPTPVTPVTPTTPALPAIPISPPPVSAVNKSGPSTVSEPAKSSSGVLLVSSPTMPHLGTMLSPASSQTAPSSQAAARVVSHSGSAGLSQVRVVAQPSLPAVPQQSGGPAQTLPQMPAGPQIRVPATATQTKVVPQTVMATVPVKAQTTAATVQRPGPGQTGLTVTSLPATASPVSKPATSSPGTSAPSASTAAVIQNVTGQNIIKQVAITGQLGVKPQTGNSIPLTATNFRIQGKDVLRLPPSSITTDAKGQTVLRITPDMMATLAKSQVTTVKLTQDLFGTGGNTTGKGISATLHVTSNPVHAADSPAKASSASAPSSTPTGTTVVKVTPDLKPTEASSSAFRLMPALGVSVADQKGKSTVASSEAKPAATIRIVQGLGVMPPKAGQTITVATHAKQGASVASGSGTVHTSAVSLPSMNAAVSKTVAVASGAASTPISISTGAPTVRQVPVSTTVVSTSQAGKLPTRITVPLSVISQPMKGKSVVTAPIIKGNLGANLSGLGRNIILTTMPAGTKLIAGNKPVSFLTAQQLQQLQQQGQATQVRIQTVPASHLQQGTASGSSKAVSTVVVTTAPSPKQAPEQQ [NFRKB]”?
Answer: solubility in G1/S (log2) (HeLa Kyoto [1]): -0.0172; solubility change mitosis (log2) (HeLa Kyoto [2]): 0.184

Question: “MDSTKEKCDSYKDDLLLRMGLNDNKAGMEGLDKEKINKIIMEATKGSRFYGNELKKEKQVNQRIENMMQQKAQITSQQLRKAQLQVDRFAMELEQSRNLSNTIVHIDMDAFYAAVEMRDNPELKDKPIAVGSMSMLSTSNYHARRFGVRAAMPGFIAKRLCPQLIIVPPNFDKYRAVSKEVKEILADYDPNFMAMSLDEAYLNITKHLEERQNWPEDKRRYFIKMGSSVENDNPGKEVNKLSEHERSISPLLFEESPSDVQPPGDPFQVNFEEQNNPQILQNSVVFGTSAQEVVKEIRFRIEQKTTLTASAGIAPNTMLAKVCSDKNKPNGQYQILPNRQAVMDFIKDLPIRKVSGIGKVTEKMLKALGIITCTELYQQRALLSLLFSETSWHYFLHISLGLGSTHLTRDGERKSMSVERTFSEINKAEEQYSLCQELCSELAQDLQKERLKGRTVTIKLKNVNFEVKTRASTVSSVVSTAEEIFAIAKELLKTEIDADFPHPLRLRLMGVRISSFPNEEDRKHQQRSIIGFLQAGNQALSATECTLEKTDKDKFVKPLEMSHKKSFFDKKRSERKWSHQDTFKCEAVNKQSFQTSQPFQVLKKKMNENLEISENSDDCQILTCPVCFRAQGCISLEALNKHVDECLDGPSISENFKMFSCSHVSATKVNKKENVPASSLCEKQDYEAHPKIKEISSVDCIALVDTIDNSSKAESIDALSNKHSKEECSSLPSKSFNIEHCHQNSSSTVSLENEDVGSFRQEYRQPYLCEVKTGQALVCPVCNVEQKTSDLTLFNVHVDVCLNKSFIQELRKDKFNPVNQPKESSRSTGSSSGVQKAVTRTKRPGLMTKYSTSKKIKPNNPKHTLDIFFK [POLK]” was tested. Which “solubility in G1/S (log2)” value (HeLa Kyoto [1]) did it give?
Answer: -0.534

Question: What about the “solubility change mitosis (log2)” value (HeLa Kyoto [2]) of the same sequence?
Answer: 0.335

Question: Which results are given for “MDTAEEDICRVCRSEGTPEKPLYHPCVCTGSIKFIHQECLVQWLKHSRKEYCELCKHRFAFTPIYSPDMPSRLPIQDIFAGLVTSIGTAIRYWFHYTLVAFAWLGVVPLTACRIYKCLFTGSVSSLLTLPLDMLSTENLLADCLQGCFVVTCTLCAFISLVWLREQIVHGGAPIWLEHAAPPFNAAGHHQNEAPAGGNGAENVAADQPANPPAENAVVGENPDAQDDQAEEEEEDNEEEDDAGVEDAADANNGAQDDMNWNALEWDRAAEELTWERMLGLDGSLVFLEHVFWVVSLNTLFILVFAFCPYHIGHFSLVGLGFEEHVQASHFEGLITTIVGYILLAITLIICHGLATLVKFHRSRRLLGVCYIVVKVSLLVVVEIGVFPLICGWWLDICSLEMFDATLKDRELSFQSAPGTTMFLHWLVGMVYVFYFASFILLLREVLRPGVLWFLRNLNDPDFNPVQEMIHLPIYRHLRRFILSVIVFGSIVLLMLWLPIRIIKSVLPNFLPYNVMLYSDAPVSELSLELLLLQVVLPALLEQGHTRQWLKGLVRAWTVTAGYLLDLHSYLLGDQEENENSANQQVNNNQHARNNNAIPVVGEGLHAAHQAILQQGGPVGFQPYRRPLNFPLRIFLLIVFMCITLLIASLICLTLPVFAGRWLMSFWTGTAKIHELYTAACGLYVCWLTIRAVTVMVAWMPQGRRVIFQKVKEWSLMIMKTLIVAVLLAGVVPLLLGLLFELVIVAPLRVPLDQTPLFYPWQDWALGVLHAKIIAAITLMGPQWWLKTVIEQVYANGIRNIDLHYIVRKLAAPVISVLLLSLCVPYVIASGVVPLLGVTAEMQNLVHRRIYPFLLMVVVLMAILSFQVRQFKRLYEHIKNDKYLVGQRLVNYERKSGKQGSSPPPPQSSQE [MARCH6]”?
Answer: solubility in G1/S (log2) (HeLa Kyoto [1]): -0.397; solubility change mitosis (log2) (HeLa Kyoto [2]): 0.155

Question: For “MDWKEVLRRRLATPNTCPNKKKSEQELKDEEMDLFTKYYSEWKGGRKNTNEFYKTIPRFYYRLPAEDEVLLQKLREESRAVFLQRKSRELLDNEELQNLWFLLDKHQTPPMIGEEAMINYENFLKVGEKAGAKCKQFFTAKVFAKLLHTDSYGRISIMQFFNYVMRKVWLHQTRIGLSLYDVAGQGYLRESDLENYILELIPTLPQLDGLEKSFYSFYVCTAVRKFFFFLDPLRTGKIKIQDILACSFLDDLLELRDEELSKESQETNWFSAPSALRVYGQYLNLDKDHNGMLSKEELSRYGTATMTNVFLDRVFQECLTYDGEMDYKTYLDFVLALENRKEPAALQYIFKLLDIENKGYLNVFSLNYFFRAIQELMKIHGQDPVSFQDVKDEIFDMVKPKDPLKISLQDLINSNQGDTVTTILIDLNGFWTYENREALVANDSENSADLDDT [C14ORF10]”, which “solubility in G1/S (log2)” value (HeLa Kyoto [1]) is on record?
Answer: -0.0201

Question: And the “solubility change mitosis (log2)” value (HeLa Kyoto [2])?
Answer: -0.0757

Question: How did the “solubility in G1/S (log2)” value (HeLa Kyoto [1]) turn out when “MEAPPVTMMPVTGGTINMMEYLLQGSVLDHSLESLIHRLRGLCDNMEPETFLDHEMVFLLKGQQASPFVLRARRSMDRAGAPWHLRYLGQPEMGDKNRHALVRNCVDIATSENLTDFLMEMGFRMDHEFVAKGHLFRKGIMKIMVYKIFRILVPGNTDSTEALSLSYLVELSVVAPAGQDMVSDDMKNFAEQLKPLVHLEKIDPKRLM [MED18]” was run?
Answer: 0.212

Question: And the “solubility change mitosis (log2)” value (HeLa Kyoto [2])?
Answer: -0.161

Question: With “MEDGVLKEGFLVKRGHIVHNWKARWFILRQNTLVYYKLEGGRRVTPPKGRILLDGCTITCPCLEYENRPLLIKLKTQTSTEYFLEACSREERDAWAFEITGAIHAGQPGKVQQLHSLRNSFKLPPHISLHRIVDKMHDSNTGIRSSPNMEQGSTYKKTFLGSSLVDWLISNSFTASRLEAVTLASMLMEENFLRPVGVRSMGAIRSGDLAEQFLDDSTALYTFAESYKKKISPKEEISLSTVELSGTVVKQGYLAKQGHKRKNWKVRRFVLRKDPAFLHYYDPSKEENRPVGGFSLRGSLVSALEDNGVPTGVKGNVQGNLFKVITKDDTHYYIQASSKAERAEWIEAIKKLT [PLEK2]” as the sequence, how does the “solubility in G1/S (log2)” value (HeLa Kyoto [1]) read?
Answer: -0.00783

Question: And the “solubility change mitosis (log2)” value (HeLa Kyoto [2])?
Answer: -0.0462

Question: For “MEDLEEDVRFIVDETLDFGGLSPSDSREEEDITVLVTPEKPLRRGLSHRSDPNAVAPAPQGVRLSLGPLSPEKLEEILDEANRLAAQLEQCALQDRESAGEGLGPRRVKPSPRRETFVLKDSPVRDLLPTVNSLTRSTPSPSSLTPRLRSNDRKGSVRALRATSGKRPSNMKRESPTCNLFPASKSPASSPLTRSTPPVRGRAGPSGRAAASEETRAAKLRVSGSGEFVGLTLKFLHPSPPGPPTPIRSVLAPQPSTSNSQRLPRPQGAAAKSSSQLPIPSAIPRPASRMPLTSRSVPPGRGALPPDSLSTRKGLPRPSTAGHRVRESGHKVPVSQRLNLPVMGATRSNLQPPRKVAVPGPTR [PSRC1]”, which “solubility in G1/S (log2)” value (HeLa Kyoto [1]) is on record?
Answer: -0.152

Question: And the “solubility change mitosis (log2)” value (HeLa Kyoto [2])?
Answer: 0.803

From the supplement of paper PMC5998384
